Several values for one entry are separate records, joined by “and”; a condition that tells them apart may be missing. Equal values may be shown once.

This is an account of results in patent US20210115146A1 (WUXI BIOLOGICS IRELAND, published 2021).

Assay [1] addresses T1, human EGFR ECD protein (W562-hPro1.ECD.his) (human, UniProt P00533 25-645).
T1 construct: extracellular domain; Made in HEK293 cells
The experiment in a line: SPR (ProteOn XPR36), antibody captured by anti-human IgG Fc, EGFR ECD.his as analyte. As for the experimental part:
Each antibody was captured on an anti-human IgG Fc antibody immobilized GLM sensor chip (Bio-Rad). W562-hPro1.ECD.his at different concentrations was injected over the sensor chip at a flow rate of 100 uL/min for an association phase of 240 s, followed by 1800 s dissociation. The chip was regenerated by 10 mM glycine (pH 1.5) after each binding cycle. The sensorgrams of blank surface and buffer channel were subtracted from the test sensorgrams. The experimental data was fitted by 1:1 binding model using Langmiur analysis. Molecular weight of 85 kDa was used to calculate the molar concentration of analyte.

Assay [2] deals with T2, Macaca fascicularis EGFR (cell surface) (Macaca fascicularis, UniProt A0A2K5WK39 25-1210).
T2 construct: whole, on cells; also called monkey EGFR; cyno EGFR
The experiment in a line: FACS on cells expressing monkey EGFR. On the procedure: (§1) The binding of antibodies to cell surface EGFR was assessed by FACS with EGFR transfected cells and A431 cell line, which over expresses human EGFR. 1×10⁵ cells/well were plated in a 96-well plate and centrifuged at 210 g for 5 minutes at 4° C. After removing the supernatant, the cell pellets were re-suspended with serial dilutions of testing purified antibodies in 1% BSA-PBS and incubated for 1 hour at 4° C., followed by incubation with FITC conjugated goat anti-human IgG (Jackson ImmunoResearch) at 4° C. for 1 hour. Two times of washing with 200 μl/well 1% BSA-PBS were applied between each step. Finally, the cells were resuspended in 100 μl 1% BSA-PBS for flow cytometry analysis (Intellicyt).

Assay [3] addresses T3, human EGFR (cell surface) (human, UniProt P00533 25-1210). The experiment in a line: cell-based or functional assay.
Assay [4] deals with T3, human EGFR (cell surface). Briefly: FACS binding to A431 cells (printed 'A432' in paragraph 253) after 0, 1, 4, 7 and 14 days in human serum at 37 C; lower panel. On the procedure:
(§2) Freshly collected human blood was incubated in polystyrene tubes without anticoagulant for 30 minutes at room temperature. The Serum was collected after centrifugation the blood at 4000 rpm for 10 minutes. Repeat the centrifugation until the serum was clarifying. Gently mix antibodies with serum and ensure the serum content >95%. The mix aliquots were incubated at 37° C. for 0 day, 1 day, 4 days, 7 days and 14 days, respectively. At the indicated time point the samples were quickly-frozen in liquid nitrogen and stored at −80° C. until analysis. The cell bindings of the serial dilutions of the antibody samples to A432 cells were analyzed by FACS. Four-parameter non-linear regression analysis was used to obtain EC₅₀ values for cell binding using GraphPad Prism 5 software (GraphPad Software, La Jolla, Calif.).
(In general: A flow cytometer gives signals particle by particle.)

Assay [5] deals with T2, Macaca fascicularis EGFR (cell surface). Briefly: FACS affinity on transfected cells, quantitative beads. On the procedure: (§3) Human, cyno, mouse EGFR and human EGFRvIII transfected cells were transferred in to 96-well U-bottom plates (BD) at a density of 5×10⁴ cells/well, respectively. Testing antibodies were 1:3.16-fold serially diluted in 1% BSA-PBS and incubated with the cells at 4° C. for 1 hr. The secondary antibody, Alexa647 conjugated goat anti-human IgG Fc (Jackson Immunoresearch Lab), was added to resuspended cells and incubated at 4° C. in the dark for 1 hr. The cells were then washed once and resuspended in PBS with 1% BSA, and analyzed by flow cytometery (BD). Fluorescence intensity was converted to bound molecules/cell based on the quantitative beads (Quantum™ MESF Kits, Bangs Laboratories). KD was calculated using Graphpad Prism5.

For assay [6], the target named is T4, human EGFRvIII (cell surface) (human, UniProt P00533 25-1210).
T4 construct: whole, on cells; also called hEGFRIII; EGFR variant III
The assay is described as above. On the procedure: as §3

For assay [7], the target named is T5, mouse EGFR (cell surface) (mouse, UniProt Q01279 25-1210).
T5 construct: whole, on cells; also called W562-CHO-K1.mProl.F3 cells
Described as above. On the procedure:
as §3

Assay [8] concerns the target T3, human EGFR (cell surface). Described as above. As for the experimental part:
as §3

Assay [9] concerns the target T3, human EGFR (cell surface). Briefly: FACS competition with EGF-biotin (50 ng/ml) on A431 cells. On the procedure: EGFR-expressing A431 cells were routinely maintained in DMEM containing 10% FBS, 10 mM HEPES and L-glutamine. 10⁵ cells per well were added to each well of a 96-well plate and centrifuged at 210 g for 5 minutes at 4° C. before the supernatant was removed. Serial dilutions of test antibodies were added to the pelleted cells and incubated for 1 hour at 4° C. […] MFI of the cells was measured by flow cytometry and analyzed by FlowJo.

For assay [10], the target named is T5, mouse EGFR (cell surface). The experiment in a line: FACS on cells expressing mouse EGFR. On the procedure:
as §1

For assay [11], the target named is T3, human EGFR (cell surface). Briefly: FACS on cells carrying human EGFR. As for the experimental part: as §1
In assay [12] the target is T3, human EGFR (cell surface). The experiment in a line: FACS binding to A431 cells (printed 'A432' in paragraph 253) after 0, 1, 4, 7 and 14 days in human serum at 37 C; upper panel. As for the experimental part: as §2

B1: W5626-2C10-z5 (humanized VHH of W5626-2C10 further comprising a human Fc of IgG1 isotype) (Fc fusion)
chain: AVQLVESGGGLVQPGGSLTLSCAASGRTFSSYAMGWFRQAPGKEREFVAADRWSGGNTRYADSVKGRFTISRDNAKNTLYLQMNSLRAEDTAVYYCAATYLSSDYEWGVPPKAYDYDYWGQGTLVTVSS
notes: Bivalent humanized VHH linked with human IgG1 Fc region; not shown: human IgG1 Fc region from a modified pcDNA3.3 vector
Regarding B1, the Kd – broadly, the constant that tells how readily two partners part at equilibrium – in [1] came out at 162 pM; in assay [5], 230 pM; in [6], 320 pM; in [7] it was 540 pM; in assay [8] it was 1400 pM. Further, in assay [1], the koff (in general, a measure of how fast the partners let go of each other) was determined as 0.000105 s⁻¹. Moreover, in assay [1], the kon (as a rule, a measure of how fast the partners come together) stood at 646000 M⁻¹ s⁻¹. The EC50 (as a rule, the concentration at which the effect is half-maximal) in [2] came out at 580 pM; in assay [10] it was 1060 pM; in assay [11], 990 pM. For the same molecule, in assay [3], the “EC50 of EGFR internalization (Fab-ZAP, viability of A431 cells)” value stood at 210 pM. Besides, in assay [3], the “IC50 of inhibition of EGFR phosphorylation (pEGFR sandwich ELISA, A431 cells stimulated with EGF)” value is 10.4 nM and 22.6 nM. In addition, in [4], the EC50 (read off the curve) (commonly the midpoint of the concentration-response curve) was about 800 pM. Further, the Bmax in [5] stood at 230 pM; in [6], 590 pM; in assay [7], 890 pM; in [8], 920 pM. Besides, the IC50 (commonly the concentration needed to halve the response being measured) in [9] was found to be 2580 pM.

B2: W5626-2C2-z22 (humanized VHH of W5626-2C2 further comprising a human Fc of IgG1 isotype) (Fc fusion)
chain: EVQLVESGGGLVQPGGSLRLSCAASGRTHSNYVMGWFRQAPGQEREFVAGISRTYGNTYYRDSVEGRFTISRDNSKNTLYLQMNSLRAEDTAVYYCAADPTRSEVILTTSHRYVYWGQGTLVTVSS
notes: as for B1
For the molecule B2, the Kd in assay [1] worked out at 3220 pM; in assay [5], 260 pM; in assay [6], 240 pM; in assay [7] it was 510 pM; in assay [8], 1100 pM. This molecule showed an off-rate constant (koff) in [1] of 0.00209 s⁻¹. Besides, the on-rate (kon) in assay [1] was 649000 M⁻¹ s⁻¹. The values for the EC50 in assay [2], in assay [10] and in assay [11] were 250 pM, 650 pM and 830 pM, respectively. In [3], the “EC50 of EGFR internalization (Fab-ZAP, viability of A431 cells)” value came out at 170 pM. Also, the “IC50 of inhibition of EGFR phosphorylation (pEGFR sandwich ELISA, A431 cells stimulated with EGF)” value in [3] was 22.6 nM and 10.4 nM. Besides, the Bmax stood at 230 pM in assay [5], 530 pM in assay [6], 1000 pM in assay [7] and 860 pM in assay [8]. For the same molecule, in assay [9], the IC50 worked out at 1350 pM. The “EC50 (read off the curve)” value in [12] was about 900 pM.
